Legend:
FRAP = target: T1, FRAP (Plasmodium falciparum, UniProt Q8IL04); experiment: Inhibition of FRAP-mediated hemozoin formation; format: biochemical, P. falciparum; details: different concentrations, FIG. 14
T1 construct: The activity requires the complete protein as two truncated variants of FRAP; made in house; host or cells: E. coli BL21
Method: FIG. 14. Inhibition of FRAP-mediated hemozoin formation by Chloroquine. Hemozoin formation was investigated in the absence or presence of different concentrations of chloroquine, an antimalarial drug with high affinity for heme.
(§1) The standard assay contained in a total volume of 1.0 ml: 500 mM sodium acetate pH 5.2, 300 nmol/ml hemin-Cl (as substrate) and 500 pmol/ml FRAP, as the source of heme polymerase activity. The amount of FRAP added was chosen such that 50% of the substrate was converted into product (insoluble hemozoin) during the assay. The reaction was initiated by protein addition and allowed to proceed for 16 hours at 37 degree. The reaction was terminated by adding 0.01 ml of 10% SDS solution. The reaction tube was centrifuged at 13,000 rpm for 15 minutes at 23 degrees and the supernatant was carefully removed. The pellet, which contained the polymerized and insoluble hemozoin, was resuspended in 1 ml of 0.1 M sodium bicarbonate pH 9.1 containing 2.5% SDS. […] The pellet obtained after final washing was dissolved in 0.3 ml of 0.1 N NaOH and the absorbance of the solution was measured at 405 nm using a spectrophotometer. Amount of heme polymerized was calculated utilizing a standard curve, prepared by dissolving known amounts of commercially available beta-hematin in 0.1 N NaOH. […]

HepG2 cells [1] = experiment: Liver cell binding inhibition assay with glycosaminoglycans; format: cell-based, human; details: FIG. 6
Method: Liver Cell binding assay: The binding of proteins was assayed on HepG2 cells as described previously (1, 31). Briefly, cells were plated at a density of 25,000 cells/well, in a 96 well plate, 36 hours before the start of the experiment. The cells were fixed with paraformaldehyde, blocked with 1% BSA, followed by the addition of equimolar concentrations of recombinant proteins. Bound protein was detected using anti-polyhistidine tag monoclonal antibody (1:10,000) and anti-mouse antibody conjugated to alkaline phosphatase (1:2000). Amount of bound protein was detected by using 4-methylumbelliferyl phosphate, a fluorescent substrate, and measurement of fluorescence using a fluorescent plate reader (Molecular Devices, CA) with excitation and emission set at 350 nm and 460 nm respectively. Results are shown as mean±standard deviation of mean of a representative experiment performed in triplicate. Binding inhibition assays were performed by combining the recombinant proteins with increasing amounts of glycosaminoglycans and incubating at 37° C. for 15 min. For enzyme treatment, cells were incubated with different concentrations of Heparinase I or Chondroitinase ABC for 90 minutes at 37° C. as previously described (31), before the addition of proteins. The bound protein was assayed as described above. […]

heme = experiment: FRAP-mediated hemozoin formation assay; format: biochemical; details: result in words
Method: FIG. 8. FRAP-mediated neutralization of toxic heme into non-toxic Hemozoin. 500 pmoles of each of the protein was incubated with different concentrations of free heme at 37° C. for 16 hours, under acidic conditions (500 mM Sodium acetate pH 5.2). After 16 hours, free heme was removed by washing and the insoluble pellet representing hemozoin was solubalized in sodium hydroxide and estimated using a spectrophotometer.
as §1, with “degree.” for “degree. The reaction was terminated by adding 0.01 ml of 10% SDS solution. The reaction tube was centrifuged at 13,000 rpm for 15 minutes at 23 degrees and the supernatant was carefully removed. The pellet, which contained the polymerized and insoluble hemozoin, was resuspended in 1 ml of 0.1 M sodium bicarbonate pH 9.1 containing 2.5% SDS.”
Furthermore, the hemozoin formation was also evaluated with truncated variants and point mutants of FRAP to not only describe its structural requirements, but also pin point the residues that are involved in the polymerization process.

HepG2 cells [2] = experiment: Liver cell binding assay; format: cell-based, human; details: FIG. 5
Method: (§2) Liver Cell binding assay: The binding of proteins was assayed on HepG2 cells as described previously (1, 31). Briefly, cells were plated at a density of 25,000 cells/well, in a 96 well plate, 36 hours before the start of the experiment. The cells were fixed with paraformaldehyde, blocked with 1% BSA, followed by the addition of equimolar concentrations of recombinant proteins. Bound protein was detected using anti-polyhistidine tag monoclonal antibody (1:10,000) and anti-mouse antibody conjugated to alkaline phosphatase (1:2000). Amount of bound protein was detected by using 4-methylumbelliferyl phosphate, a fluorescent substrate, and measurement of fluorescence using a fluorescent plate reader (Molecular Devices, CA) with excitation and emission set at 350 nm and 460 nm respectively. Results are shown as mean±standard deviation of mean of a representative experiment performed in triplicate. Binding inhibition assays were performed by combining the recombinant proteins with increasing amounts of glycosaminoglycans and incubating at 37° C. for 15 min. For enzyme treatment, cells were incubated with different concentrations of Heparinase I or Chondroitinase ABC for 90 minutes at 37° C. as previously described (31), before the addition of proteins. The bound protein was assayed as described above.
Therefore, binding activity was probed using a polyhistidine tag monoclonal antibody. […]

HepG2 cells [3] = experiment: Binding to liver cells pretreated with glycosaminoglycan cleaving enzyme; format: cell-based, human; details: for Inhibition of Binding (%): 100 nM protein
Method: as §2
The involvement of HSPG as a receptor was further verified by evaluating the binding of the protein on liver cells that were pretreated with specific glycosaminoglycan-cleaving enzymes. Cells were pre-treated with heparinase I or chondroitinase ABC followed by the evaluation of binding activity of FRAP and FRAP2. Heparinase I selectively removes heparan sulfate while chondroitinase ABC cleaves chondroitin sulfate A, B and C type sugars from the liver cell surface. Both, FRAP and FRAP2 lost 50% of their binding activity on heparinase I treated cells (Table 4) confirming the involvement of a heparin-based receptor on the liver cell surface.

[4] = test system: P. falciparum sporozoites; experiment: Sporozoite invasion assay; format: cell-based, P. falciparum (strain NF54); details: versus culture medium
Method: Sporozoite Invasion Assay: Invasion assay was performed with HepG2 (Human hepatoma) cells as previously described (31). Briefly, HepG2 cells were plated (50,000 cells/0.3 ml) and incubated overnight at 37° C. in a CO2 incubator. Next day, medium was removed and 50 μl of diluted FRAP proteins (final concentrations: 20 and 10 μg/ml) or anti-FRAP2 antibodies (40 μg/ml final concentration) were added per well. Anti CS monoclonal antibody NFS1 was used at a final concentration of 100 μg/ml. All protein concentrations and serum dilutions were evaluated in triplicate. This was immediately followed by the addition of 20,000 sporozoites in 50 μl of medium to each well. P. falciparum (strain NF54) sporozoites were obtained from the salivary glands of An. stephensi mosquitoes as described by Ozaki (33). The sporozoites were allowed to invade liver cells for three hours followed by the washing of cells with PBS at pH 7.4. Subsequently, the cells were fixed with cold methanol. Sporozoites were visualized by immunostaining using NFS1 as primary antibody and anti-mouse IgG-peroxidase conjugate. The slides were mounted with Paramount and only intracellular sporozoites were counted as described (31). Percentage inhibition of invasion was calculated with the following formula: [(Control-test)/control]×100 Results

T1 sequence (Q8IL04 whole entry, the tested form may be a part): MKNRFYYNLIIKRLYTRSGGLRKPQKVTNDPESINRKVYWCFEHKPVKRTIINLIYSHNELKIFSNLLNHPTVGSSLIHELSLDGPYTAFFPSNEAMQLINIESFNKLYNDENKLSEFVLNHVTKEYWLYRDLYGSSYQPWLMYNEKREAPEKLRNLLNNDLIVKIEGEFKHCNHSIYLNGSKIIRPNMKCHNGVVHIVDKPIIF

Molecule: CCN(CC)CCCC(C)Nc1ccnc2cc(Cl)ccc12 (centres unmarked) [Chloroquine, chloroquine]
- inhibition of FRAP-mediated hemozoin formation (FRAP): inhibited heme polymerization in a dose dependent manner
- inhibition of FRAP-mediated hemozoin formation (FRAP; listed as chloroquine): effectively inhibited

Molecule: chondroitin sulfate A [reference compound]
- inhibition of FRAP and FRAP2 binding to liver cells by the glycosaminoglycan (HepG2 cells [1]; highest concentration evaluated): no inhibition

B1: FRAP from rodent malaria parasite P. yoelii: P. yoelii FRAP ortholog, SEQ ID NO: 9 (protein, listed as Plasmodium yoelii)
chain: MKKKLYNLVLKRSYTRSGGLRKPQKVTNDPESINRKVYWCFEHKPVRRTVINLIFSHNELKNFSTLLRNTNASSSLIHELSLEGPYTGFLPSDEALNLLSTNSLNKLYKDDNKMSEFVLNHFTKGLWMYRDLYGSSYQPWLMYNEKREAPEKIQTLVNNDIIVKIEGEFKNCDHSIYLNEAKIIRPNMKCHNGIIHIIDKPIIF
- hemozoin formation (heme polymerization) activity (heme): demonstrated

B2: FRAP2: truncated FRAP containing only amino acids 1-87, SEQ ID NO: 25 (protein, listed as Plasmodium falciparum)
chain: MKNRFYYNLIIKRLYTRSGGLRKPQKVTNDPESINRKVYWCFEHKPVKRTIINLIYSHNELKIFSNLLNHPTVGSSLIHELSLDGPY
- loss of binding activity in comparison to the full length protein (HepG2 cells [2]): 50%
- binding on liver cells (HepG2 cells [2]; five concentrations of recombinant protein): only half the strength
- reduction of binding activity in the presence of free heparin (HepG2 cells [1]; HepG2 cells): 60%
- Inhibition of Binding (%) (HepG2 cells [3]; cells pretreated with Heparinase I 1.25 U/ml for 90 minutes): 42.3 ± 10.4%
- Inhibition of Binding (%) (HepG2 cells [3]; cells pretreated with Heparinase I 2.50 U/ml for 90 minutes): 41.4 ± 1.5%
- Inhibition of Binding (%) (HepG2 cells [3]; cells pretreated with Heparinase I 5.00 U/ml for 90 minutes): 49.4 ± 9.2%
- loss of binding activity on heparinase I treated cells (HepG2 cells [3]; text summary of Table 4): 50%
- % Inhibition of invasion of HepG2 cells by P. falciparum sporozoites ([4]; 10 μg/ml): 88.1 ± 4.6%
- % Inhibition of invasion of HepG2 cells by P. falciparum sporozoites ([4]; 20 μg/ml): 92.4%
- hemozoin formation (heme polymerization) activity (heme): did not show any hemozoin formation

— patent US7438916B2, “Therapeutic target for protozoal diseases” (priority 2005, dated 2008)
